Test results published in the supplement of paper PMC12764529.
± gives the half width of the 95% confidence interval.

Legend:
[1] = folding stability dG unfold from chymotrypsin proteolysis; higher = more stable
Summary of the method: (§1)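 Bayesian fitting of sequencing counts gave K50 for each design. Unfolding free energy followed by setting this against a sequence-predicted unfolded-state K50 and a shared folded-state K50, either per protease or with trypsin and chymotrypsin combined. The designs, under 80 residues and lacking cysteine, were digested in a PA-tagged cDNA display format at 11 threefold-diluted protease concentrations and without protease, and only those with AlphaFold2 dimer inter-PAE above 15 were kept.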

[2] = folding stability dG unfold from trypsin proteolysis; higher = more stable
Summary of the method: as §1

[3] = folding stability dG unfold (combined trypsin and chymotrypsin); higher = more stable
Summary of the method: as §1

Sequence	folding stability dG unfold [1] [kcal/mol]	folding stability dG unfold [2] [kcal/mol]	folding stability dG unfold [3] [kcal/mol]
SAGGMRLVFVTETPEEAEEIARELAELFPDFELEAEVREEEVLVEVPETGEVKRRPVYVLVIELRPKSAGGS [r16_828_TrMRF]	4.42 ± 0.059	4.29 ± 0.098	4.41 ± 0.079
SAGGSAGGSAVKIKIEQLGPGYFHITIEQEMMYPDGKSRKMTMTMMFKVNAPPNDPALRELLSAGGSAGGSA [r18_215_TrROS]	2.98 ± 0.088	2.69 ± 0.059	2.97 ± 0.13
SVTVDEIAEWFANSFQQHGMKDVKVDVTVEPDPKNGRVRVDVQIRMTYPNPDGEKHRFEMTIPVEIPPNDSA [r9_440_TrROS]	1.93 ± 0.075	1.93 ± 0.051	1.99 ± 0.12
SAGGSAGGSAGATISPDGYKIVVTNADGEKVTLTFDSLEEAKAALEALLPPGARVFIEKVSAGGSAGGSAGG [r11_983_TrROS_Hall]	2.009 ± 0.011	0.529 ± 0.035	1.61 ± 0.031
SAGSMLFDPNGVLREVSVTPDPSTGTTVTTTLVQWPVDDGNGNSVLERITTTTSPSGTVTTSTEVRPAPSAG [r5_303_JUSTAS]	0.0881 ± 0.034	0.182 ± 0.027	0.138 ± 0.085
SFTPEQVKDIAKTIANRMYDNGYEVEVDVEVEPVNNMPYVEIEFEWRDPDGQPWKFEIIIHPDGDIEIYPSA [r9_1027_TrROS]	2.7 ± 0.065	1.28 ± 0.16	2.43 ± 0.21
SMIKPGDTVTIVLKVKPEDLEKIREAVEELLRELFPDVEVESVEVNPEEENYVVITVRVDGKEITLVIERSA [r9_1079_TrROS_Hall]	2.262 ± 0.021	2.78 ± 0.048	2.5 ± 0.041
SAGGSAGGSAGGMTLEEVKKALEELGIKEENQTVTIELEDGSKVKITVKDGKVVLEVEPSAGGSAGGSAGGS [r10_604_TrROS_Hall]	2.19 ± 0.1	2.81 ± 0.18	2.54 ± 0.13
SAGISIRFPGMQIEIDEIERDNNKVVIRVEVTMPAKNPNGQPQMMTHTMWIVIKIPPPPPPADPADAKKSAG [r5_70_TrROS]	3.96 ± 0.053	2.81 ± 0.12	3.51 ± 0.23
SAGGSAKIEEIASLPAEEIAEAFGLTVISATVERFEDGTVVLTVEIAPPLGPPIRVTFVFGVDPEKSAGGSA [r15_805_TrMRF]	4.19 ± 0.061	2.21 ± 0.045	3.75 ± 0.058
SAGGSMSPWHWARHIAKKLRKKFPPGKKVRIKIEYDDGPVEFEIPPGEWIPIPSNAPIEILNIKVKSAGGSA [r2_391_TrROS]	2.36 ± 0.11	1.97 ± 0.034	2.25 ± 0.11
SIWFSPGKKYKIDEIRFGGWEIEKFTAQVGPDGNIQIPMDIKPVKKPPPPPPVVRNPEDGKYYDPGDPKDSA [r9_603_TrROS]	1.64 ± 0.25	-0.127 ± 0.39	1.04 ± 0.78
SANWHRFTIEAWVPVRDPNGKPIRPEQVEEQAERIANELWPRGFPIKDVTVEQHPDGWVRITATIEVPDSAG [r14_470_TrROS]	3.137 ± 0.022	2.47 ± 0.08	2.94 ± 0.11
SAGMVLEYEGVDEEEKLLARAEELRAELRARHPRVRVELEVEVKPTPGNKYRYRVTLTIEPLAPDEARASAG [r5_936_JUSTAS]	2.09 ± 0.11	1.75 ± 0.11	1.99 ± 0.15
SAGKDGDPPKRVRIKFKIPLPGGKLYEVTQTFYPNGSVHVSIRFPNGWMLSAWIPPDGDIEIKIMPIKKSAG [r5_168_TrROS]	4.3 ± 0.14	3.37 ± 0.21	4 ± 0.23
SAGGSMPLTLEIKAPASTPASEIVATLKKYGPVTVTLGDGRTYNIPRDKPPNLKGLPLAPDAVLTLVVSAGG [r13_399_JUSTAS]	-0.742 ± 0.4	-0.08 ± 0.1	-0.263 ± 0.091
SAGGSAGGSAGGNWVMIEFNFPPGKKLKIEIPNGRDIQRHRDPDNGTLWFMIPPEAAEDFSAGGSAGGSAGG [r7_155_TrROS]	0.509 ± 0.26	0.649 ± 0.11	0.636 ± 0.27
MRITLELEDGTRVEIEFERKEDGTLVVRIKVTRKDGKTVEIEVVVRSKDGKITPEELERALREALEELLKKS [r1_124_TrROS_Hall]	4.06 ± 0.33	4.19 ± 0.24	4.21 ± 0.38
SAGGMSPELKKNKNVEKVIYNKKTGKVFVYNKKTKKLYIFTKNGKKIEIKMSKDEVEKLLKKGFKPISAGGS [r16_745_TrROS_Hall]	3.22 ± 0.16	2.14 ± 0.11	2.86 ± 0.2
SAGGMPEDMKLKFKVVDFRPHPHPDGYQIVELFYNDKLLRRLRVPPGLAVKLAKELPEDVALVTLPESAGGS [r8_41_TrMRF]	1.53 ± 0.14	0.828 ± 0.086	1.28 ± 0.09
SAGGSAGGEEEYYEIEIVLPKEKAEEILEELKKKLPEGWEIVSVEVVEVDEDGYVRLRIVVKRTSAGGSAGG [r6_340_TrROS_Hall]	4.21 ± 0.14	5.01 ± 0.53	4.52 ± 0.3
